Measurements as given in publication PMC4333385.

Test system: Nc1ncnc2c1ncn2[C@@H]1O[C@H](COP(=O)(O)OP(=O)(O)OP(=O)(O)O)[C@@H](O)[C@H]1O
Assay: steady-state Pi release, MDCC-PBP stopped-flow, Hill fit
Format: biochemical, Escherichia coli
Conditions: DNA-free RecQ, SF50 buffer pH 7.5, 5 mM MgCl2, 50 mM NaCl, 25 °C, Hill coefficient 1.3
Excerpt: steady-state Pi release, MDCC-PBP stopped-flow, Hill fit on E. coli RecQ helicase

E. coli RecQ helicase (Escherichia coli K-12)
K0.5: 28 ± 2 µM
kcat: 0.53 ± 0.05 s⁻¹
